Assay results as given in patent US20240254209A1 (published 2024).
Changes are numbered by the printed parent chain.

T1: peanut allergen Ara h 6 (peanut (Arachis hypogaea), UniProt Q647G9 22-145)
T1 construct: also called recombinant Ara h 6
T1 sequence (looked up): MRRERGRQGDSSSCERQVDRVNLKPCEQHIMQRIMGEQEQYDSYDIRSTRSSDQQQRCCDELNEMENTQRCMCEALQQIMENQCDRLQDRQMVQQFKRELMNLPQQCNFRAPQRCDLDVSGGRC

T2: peanut allergen Ara h 1 (peanut (Arachis hypogaea), UniProt P43238 26-626)
T2 construct: also called F422
T2 sequence (looked up): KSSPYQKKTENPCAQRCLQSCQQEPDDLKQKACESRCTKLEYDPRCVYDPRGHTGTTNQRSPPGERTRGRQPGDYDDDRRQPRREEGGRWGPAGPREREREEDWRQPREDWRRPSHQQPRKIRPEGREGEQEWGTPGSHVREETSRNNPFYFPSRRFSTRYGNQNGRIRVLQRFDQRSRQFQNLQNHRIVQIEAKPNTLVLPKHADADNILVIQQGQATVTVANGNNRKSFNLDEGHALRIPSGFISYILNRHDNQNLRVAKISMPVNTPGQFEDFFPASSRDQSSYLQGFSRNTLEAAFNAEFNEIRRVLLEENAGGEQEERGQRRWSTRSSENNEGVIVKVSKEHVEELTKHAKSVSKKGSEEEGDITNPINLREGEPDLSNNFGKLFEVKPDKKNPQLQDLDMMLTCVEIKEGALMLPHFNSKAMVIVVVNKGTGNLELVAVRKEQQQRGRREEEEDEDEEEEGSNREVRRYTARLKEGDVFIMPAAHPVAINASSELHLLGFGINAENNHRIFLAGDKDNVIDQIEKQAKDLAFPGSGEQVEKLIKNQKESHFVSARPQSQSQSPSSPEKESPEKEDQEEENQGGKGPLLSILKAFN

B1: human IgE mAb 3C3 (antibody, V domains shown)
VH: QLQLQESGPGLVKPSETLSLTCSISGASINSDDYYWGWIRQAPGEALEWIASIDASGTTFYNPSLRSRVTISVDTSTNQISLRLNSVTAADTAIYYCARRKTYYDFLTDYYNWYFDVWGRGTLVTVSS
VL: QSALTQPRSVSGSPGQSVTFSCTGINSDIRDYDYVSWYQQHPGEAPKLIIYDVTKRASGVPSRFSGSKSGNTASLTISGLQAEDEADYYCCSYSVTYSFEVFGTGTQVSVL
notes: human IgE from hybridoma
B2: human IgE mAb 26A5 (antibody, V domains shown)
VH: QVQLVQSGSELRKPGASVKVSCKASGYTFTKYGMNWVRQAPGQGLEWMGWINTNTAKPTYAQDFTGRFVFSLDTSVNTAYLEISGLKAEDTAVYYCATDGSEGSWGQGTLVTVSS
VL: DIQMTQSPSTLSASVGDRVTITCRASQSIGTWLAWHQQKPGTAPKVLIYKASNLKSGVPSRFSGSGSGTDFTLTISSLQPDDVATYYCQQYNTYSGTFGQGTRVEIK
notes: human IgE from hybridoma
B3: human IgE mAb 21C10 (antibody, V domains shown)
VH: EVQLVESGGGLVKPGGSLRLSCAASGFILSRSSMSWVRQAPGKGLEWVSYISSTSSHIYYADSLKGRFTISRDNTENSVYLQMSSLRAEDTGVYYCARKTNGAWFLDLWGRGTLVTVSS
VL: QSVLTQPPSVSGAPGQRVTISCTGSSSNIGAGSDVHWYQQFPGSAPHVLIYGNNQRPSGVPDRFSASKSGTSASLAITGLQADDEADYYCQSYDYDLSGSWVFGGGTKLTVL
notes: human IgE from hybridoma
B4: human IgE mAb 7B6 (antibody, V domains shown)
VH: QVQLQQWGAGLLKPSETLSLTCAVYGGSFNGYYWSWIRQPPGKGLEWIGEIDHSGSTNYNSSLKSRVTISVDTSKNQFSLKLSSVTAADTAVYYCARRRIGSLLKYFQDWGQGTLVTVSS
VL: SYELTQPPSVSVSPGQTASITCSGDKLGDSYVCWYQLKPGQSPVLVIYQDTKRPSGIPERFSGSNSGNTATLTISETQAMDEADYYCQAWDTTTDWVFGGGTKLTVL
notes: human IgE from hybridoma
B5: human IgE mAb 4G4 (antibody, V domains shown)
VH: EVQLVQSGGGLVQPGGSLRLSCAASRFIFGSYAMSWVRQAPGKGLEWVSAISSSGGRTYYADSVKGRFTISRDNSRNTLYLQLSSLRAEDTAFYYCTKEGDTGSLWLFDSWGQGTLVTVSS
VL: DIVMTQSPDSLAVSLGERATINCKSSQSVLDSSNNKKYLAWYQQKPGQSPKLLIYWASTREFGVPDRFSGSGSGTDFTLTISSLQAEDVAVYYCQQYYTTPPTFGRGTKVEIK
notes: human IgE from hybridoma
B6: human IgE mAb 3B7 (antibody, V domains shown)
VH: QVQLVQSGSELKKPGASMKVSCKASGYTFTNYAMNWVRQAPGQGLEWMGWINTNTGKPTYAQGFTGRFVFSLDTSVSMAYLQISSLEAGDTAVYFCARGESLAALGSFAYWGQGTLVTVSS
VL: DIQMTQSPSSLSASVGDRVTITCRASQSINSYLAWYQQKPGKAPNLLIYAASNLQSGVPSRFSGSGSGTDFTLTISSLQPEDFATYYCQQSSSTFWTFGQGTKVEIK
notes: human IgE from hybridoma
B7: human IgE mAb 15A7 (antibody, V domains shown)
VH: QVQLVQSGPEVRKPGASVKVSCKTSGYMFTDYEMNWVRQAPGQGLEWMGLINPHSGDTGYAQKFQGRVSMTSDTSTRTFYLELTGLTSEDTAVYYCARSQGTFEVYYFVSWGQGSLVTVSS
VL: SYVLTQPPSVSVAPGKTASITCGAKNIATKRVHWYRQKPGQAPVVVVSDEEDRSSVIPERFSGSKSGDTATLEISRVEAGDEADYYCQVWDSLADQVVFGGGTKVTVL
notes: human IgE from hybridoma
B8: human IgE mAb 11F10 (antibody, V domains shown)
VH: EVQLVESGGGLVQPGRSLRLSCAASGFTFDDYTMHWVRQAPGKGLEWVSSIRWNSGNLDYADSVKGRFTISRDNARHSLYLQMNSLRAEDTALYYCVKDNGLRTLDFWGQGTLVTVSS
VL: DIVMTQSPLSLPVTPGEPASISCRSSQSLLHRNGYNYLDWYLQKPGQSPQLLISLASNRASGVPDRFSGSGSGTDFTLKISRVEAEDVGVYYCMQALQTWTFGQGTKVELK
notes: human IgE from hybridoma
B9: human IgE mAb 20G11 (antibody, V domains shown)
VH: QVQLVESGGGVVQPGGSLRLSCATSGFTFSSYGMHWVRQAPGKGLEWVAFIRYNGSNKYYADSVKGRFTISRDTSKNTLYLQMNSLRAEDSAVYYCAKDGDYDSWSGLTEHFQHWGQGTLVTVSS
VL: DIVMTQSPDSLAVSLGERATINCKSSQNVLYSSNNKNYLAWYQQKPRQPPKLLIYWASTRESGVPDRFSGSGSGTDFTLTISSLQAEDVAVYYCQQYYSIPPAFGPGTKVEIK
notes: human IgE from hybridoma
B10: human IgE mAb 9A11 (antibody, V domains shown)
VH: EVQLVESGGGLVRPGGSLRLSCVASGFTFNTYWMHWVRQAPGKGLLWVSSLNKDGSSPTYADSVKGRFTISRDNTNNTLFLQLDSLRAEDTAVYYCVRDRRAVTTARYFDLWGRGTLVTVSS
VL: DIVMTQSPESLAVSLGERATINCKSSSNIDNYLGWYQQRPGQPPKLLIYWASKRESGVPDRFSGSGSGTDFTLTIGRLQAEDVAVYYCQQYYTSPPVTFGGGTKVEIK
notes: human IgE from hybridoma
B11: human IgE mAb 15C2 (antibody, V domains shown)
VH: QVQLVQSESELKKPGASVKISCKASGYDLTKYAMNWVRQAPGQGLEWMGWINTNTAKPTYAQGFTGRFVFSLDTSVRTIYLEISNLKAEDTAIYYCSRDGSGASWGQGTLVTVSS
VL: B2 VL with S28N, T31R, T42K, Y49T, K55E, S63T, S76T, V83F, N92T
notes: human IgE from hybridoma
B12: human IgE mAb 20M10 (antibody, V domains shown)
VH: EVQLVESGGGLVKPGGSLRLSCTVSGFTFNMHSMNWVRQAPGKGLEWVSFISSTSTYIYYPDSVKGRFTVSRDNSKNSLYLQMTSLRAEDTAVYYCVRRGRGGAARALDNWGQGTLVTVSS
VL: SYVLPQTPSLSVAPGQTATISCGGNNTGSKSVHWYQQKPGQAPLLVVYDNSDRPSGIPERFSGSNSGNTATLTLSRVEAEDEADYYCQVWDSTIDHVIFGGGTKLTVL
notes: human IgE from hybridoma
B13: human IgE mAb 1A8 (antibody, V domains shown)
VH: QLQLQESGPGLVKPSETLSLTCSVSDDSISTPSYFWTWIRQPPGKGLEWIASIYYTGTTYYNPSLKSRVTLSVDTPKRQFFLRLSSVTAADTAVYYCARYLDYVWLRAFDVWGQGAMVTVSS
VL: EIVLTQSPATLSLSPGERATLSCRASPSVGRFLAWYQQKPGQAPRLLIYDASQRATDIPARFSASGSGTDFTLTIDSLEPEDFAIYYCQHRSNWPVTFGGGTRVEIK
notes: human IgE from hybridoma
B14: human IgE mAb 3B10 (antibody, V domains shown)
VH: EVQLVESGGALVKPGGSLRLSCEGSGFMFSSAWLHWVRQAPGMGLELVGRMKSETDGGTLDYTAPVRGRFTISRDDSKNMFFLQMNSLKAEDTAVYYCVTGNFDYRSSPLGFWGQGALVTVSS
VL: DIQMTQSPSTLSASAGDRVTITCRASENIYKWLAWYQQKPGKAPKLLIYKVSTLESGVPSRFSGSGFGTEFTLTISSLQPGDFATYYCQHYNSFPFTFGQGTKLEVK
notes: human IgE from hybridoma
B15: human IgE mAb 40C7 (antibody, V domains shown)
VH: B5 VH with Q6E, G10D, I28S, T58A, S84N, A88G
VL: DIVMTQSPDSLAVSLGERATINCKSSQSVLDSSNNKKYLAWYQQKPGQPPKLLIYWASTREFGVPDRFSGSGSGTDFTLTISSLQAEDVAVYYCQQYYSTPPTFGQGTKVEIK
notes: human IgE from hybridoma

What follows are binders tested against T3, peanut allergen Ara h 9 (peanut (Arachis hypogaea)) (assay: ImmunoCAP, hybridoma supernatant).
T3 construct: ImmunoCAP component F427; also called F427
Description: (§1) Verification and validation of IgE mAbs peanut allergen specificity. Following the unbiased generation of IgE secreting human hybridomas from peanut allergic subject PBMCs, peanut protein binding and peanut allergen protein specificity was determined. Hybridoma culture supernatant was initially used for this validation. […] Using the available ImmunoCAP components (purified allergen proteins: Ara h 1, F422; Ara h 2, F423; Ara h 3, F424; Ara h 8 F352; Ara h 9 F427), the exact allergen specificity was determined for those which bound Ara h 1, 2, and 3.
(§2) Hybridoma cell culture supernatant was used for initial identification of allergen specificity using ImmunoCAP analysis. Peanut reactivity was first determined using peanut ImmunoCAP. Component analysis identified IgE antibodies specific for Ara h 1, 2, and 3. All antibodies not identified in this table were determined to bind Ara h 6.
With B1 the “ImmunoCAP kUA/L” value was 0.46 kUA/L.
With B2 the “ImmunoCAP kUA/L” value was 0.14 kUA/L.
For B3, the “ImmunoCAP kUA/L” value was 0.32 kUA/L.
B4 was tested, and the “ImmunoCAP kUA/L” value was 0.21 kUA/L.
For B5, the “ImmunoCAP kUA/L” value was 0.19 kUA/L.
For B6, the “ImmunoCAP kUA/L” value was 0.25 kUA/L.

These binders were tested against T4, peanut allergen Ara h 3 (peanut (Arachis hypogaea)) (assay: ImmunoCAP, hybridoma supernatant).
T4 construct: also called F424
Description: as §1, §2
With B1 the “ImmunoCAP kUA/L” value was 3460 kUA/L.
B2 was tested, and the “ImmunoCAP kUA/L” value was 0.25 kUA/L.
B3 was tested, and the “ImmunoCAP kUA/L” value was 0.83 kUA/L.
In the case of B4, the “ImmunoCAP kUA/L” value is reported as 0.32 kUA/L.
In the case of B7, the “ImmunoCAP kUA/L” value is reported as 0.14 kUA/L.
For B5, the “ImmunoCAP kUA/L” value was 0.48 kUA/L.
With B6 the “ImmunoCAP kUA/L” value was 1.15 kUA/L.

Each binder was assayed against T5, peanut allergen Ara h 8 (peanut (Arachis hypogaea)) (assay: ImmunoCAP, hybridoma supernatant).
T5 construct: ImmunoCAP component F352; also called F352
Description: as §1, §2
In the case of B1, the “ImmunoCAP kUA/L” value is reported as 0.51 kUA/L.
B2 was tested, and the “ImmunoCAP kUA/L” value was 0.15 kUA/L.
For B3, the “ImmunoCAP kUA/L” value was 0.53 kUA/L.
For B4, the “ImmunoCAP kUA/L” value was 0.29 kUA/L.
For B5, the “ImmunoCAP kUA/L” value was 0.34 kUA/L.
In the case of B6, the “ImmunoCAP kUA/L” value is reported as 0.42 kUA/L.

The binders below were run against T1, peanut allergen Ara h 6 (assay: told in the text).
B8: binds.
B9: binds.

What follows are binders tested against T1, peanut allergen Ara h 6 (assay: Phadia ImmunoCAP and/or ELISA and Western blot).
B10: binds.
B11: binds.
B12: binds.
B3: binds.
B13: binds.

These binders were tested against T2, peanut allergen Ara h 1 (assay: allergen specificity as listed in Table D).
B14: binds.
B15: binds.
